# Laboratory results taken from US20140147868A1 (published 2014).
# Positions of bridges follow the written chain, without caps; N, C: chain ends. No end group written: not given here.
# T1: human apotranscobalamin (apoTC) (human, UniProt P20062 19-427)
# T1 construct: Same chain as holoTC without cobalamin; also called apo-TCII
# T1 chain: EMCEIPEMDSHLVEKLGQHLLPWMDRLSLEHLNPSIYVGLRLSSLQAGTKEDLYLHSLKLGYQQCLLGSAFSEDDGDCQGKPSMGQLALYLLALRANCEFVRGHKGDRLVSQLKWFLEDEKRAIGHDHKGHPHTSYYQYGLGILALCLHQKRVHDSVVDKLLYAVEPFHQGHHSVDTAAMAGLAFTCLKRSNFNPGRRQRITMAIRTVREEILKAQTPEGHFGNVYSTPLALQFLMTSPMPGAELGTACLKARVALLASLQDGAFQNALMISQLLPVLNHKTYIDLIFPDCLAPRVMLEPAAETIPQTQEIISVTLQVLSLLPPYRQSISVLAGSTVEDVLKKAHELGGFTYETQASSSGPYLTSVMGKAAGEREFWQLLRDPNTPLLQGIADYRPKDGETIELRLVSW
# T2: human holotranscobalamin (holoTC) (human, UniProt P20062 19-427, cobalamin bound (holo form, non-covalent))
# T2 construct: Recombinant human holoTC in the SPR work; also called holo-TCII
# T2 chain: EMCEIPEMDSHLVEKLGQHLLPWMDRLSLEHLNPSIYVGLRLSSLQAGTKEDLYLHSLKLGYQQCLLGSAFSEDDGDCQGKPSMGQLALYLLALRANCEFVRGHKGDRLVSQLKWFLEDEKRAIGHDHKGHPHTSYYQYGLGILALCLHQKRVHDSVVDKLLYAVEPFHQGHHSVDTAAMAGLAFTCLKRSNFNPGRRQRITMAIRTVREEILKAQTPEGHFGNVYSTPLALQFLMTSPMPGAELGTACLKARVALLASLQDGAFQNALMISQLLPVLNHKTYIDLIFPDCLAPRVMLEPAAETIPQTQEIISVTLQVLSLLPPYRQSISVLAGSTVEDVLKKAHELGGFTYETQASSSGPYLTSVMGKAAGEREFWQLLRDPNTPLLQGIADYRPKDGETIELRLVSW
# B1: monoclonal antibody TC2 (antibody, mouse IgG1, V domains shown)
# VH: QVQLKQSGPGLLQPSQSLSITCTVSGFSLTYYGVHWVRQSPVKGLEWLGVIWSGGDTDYDTTFISRLSISKDNSKGQVFFKMTSLQTDDTAIYYCARGRTYGIHFDYWGQGTTLTVSS
# VL: DIVMSQSPSSLAVSVGEKVTMSCKSSQSLFNSRTRKNYLAWYQQKPGQSPKVLIYWASTRESGVPDRFTGSGSGTDFTLTISSVQAEDLAIYYCKQFYDLWTFGGGTKLEIKR
# notes: also called mAb TC2; ECACC 02110742
# What was measured:
# monoclonal antibody 3-9 = target: T3, monoclonal antibody 3-9; assay: SPR, mAb 3-9 immobilised, phagemid injected
# T3 construct: Antibody from State University of New York; also called mAb 3-9
# Experimental: (§1) The carboxylated surface of the a dextran coated CM5 chip (Biacore, Sweden) was activated according to protocol supplied by the manufacturer. In short 0.05M N-hydroxysuccinimide (NHS)/0.2 M N-ethyl-N′-[3-(dimethylamino)propyl]carbodiimide hydrochloride (EDC), was injected over the carboxylated chip at 10 μL/min for 7 min, then 50 μg/mL rabbit anti-mouse IgG polyclonal antibody in 10 mM acetate buffer, pH 5.0 is injected at 10 μL/min for 7 min, and finally the chip is blocked by injection of 1 M ethanolamine at 10 μL/min for 7 min. Immobilization of mouse monoclonal antibodies on the dextran coated chip was performed in the same way.
# (§2) Antibodies were covalently immobilized on a dextran coated CM5 chip as described in Example 2. Phages were diluted 10-fold in HBS-EP and injected at 10 μL/min for 3 min. The amounts of phagemid bound was recorded in real time and expressed in response units (RU). To evaluate blocking by holoTC, 1 μM of holoTC was injected at 10 μL/min for 5 min prior to the injection of phagemids at 10 μL/min for 3 min. Inhibition was computed as the number of RU of phagemid bound to 3C4 with pretreatment with holoTC divided with the number of RU bound without pretreatment, times 100.
# monoclonal antibody 3C4 [1] = target: T4, monoclonal antibody 3C4; assay: phage ELISA, coated mAb 3C4, 10^9 phagemid per well
# T4 construct: also called mAb 3C4; 3C4 (3CY)
# Experimental: (§3) Microtitre plates were coated with 100 μL, 1 μg/mL mAb 3C4 or unrelated control antibody in PBS over night at 4 C. Remaining binding sites were blocked with 20 mg/mL bovine serum albumin (BSA) in PBS for 1 h. Some wells were only coated with BSA. Monoclonal packaged phagemids were added at a concentration of 10¹⁰ to 10⁸ cfu per well in PBS and incubated for 1 h. Preparations of packaged phagemids were centrifuged to remove aggregates. Wells were washed 6 times with PBS containing 0.1% Tween-20 and 3 times with PBS. For detection of bound phages 100 μL of horse-radish peroxidase (HRP) conjugated anti-[…] antibody (e.g. Pharmacia) diluted 1/5000 in PBS was added to each well and incubated for 1 h at ambient temperature. ELISA plates were washed 5 times with PBS containing 0.1% Tween-20 and 3 times with PBS. The chromogenic substrate o-Phenyldiamine in citric acid, pH 4.0 supplemented with H₂O₂ was added and the color generating reaction was stopped after 2-5 min by addition of 2 M H₂SO₄.
# Target sequence in this assay (VH, as listed by the source, chain 1 of 2): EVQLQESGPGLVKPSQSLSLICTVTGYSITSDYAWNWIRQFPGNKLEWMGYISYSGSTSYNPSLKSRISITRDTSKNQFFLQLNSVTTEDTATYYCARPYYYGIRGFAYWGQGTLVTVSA
# Target sequence in this assay (VL, as listed by the source, chain 2 of 2): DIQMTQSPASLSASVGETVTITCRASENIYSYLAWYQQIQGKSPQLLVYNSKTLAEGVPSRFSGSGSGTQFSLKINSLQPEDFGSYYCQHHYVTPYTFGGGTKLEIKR
# monoclonal antibody 3C4 [2] = target: T4, monoclonal antibody 3C4; assay: SPR, mAb 3C4 immobilised, phagemid injected
# Experimental: as §1, §2
# Target sequence in this assay (VH, as listed by the source): as the sequence (VH, as listed by the source, chain 1 of 2) above
# monoclonal antibody 3C4 [3] = target: T4, monoclonal antibody 3C4; assay: SPR, phagemid bound to 3C4 after 1 uM holoTC (competitor)
# Experimental: as §1, §2
# Target sequence in this assay (VH, as listed by the source, chain 1 of 2): as above
# Target sequence in this assay (VL, as listed by the source, chain 2 of 2): as the sequence (VL, as listed by the source, chain 2 of 2) above
# monoclonal antibody 3C4 [4] = target: T4, monoclonal antibody 3C4; assay: phage ELISA, coated mAb 3C4, 10^8 phagemid per well
# Experimental: as §3
# Target sequence in this assay (VH, as listed by the source, chain 1 of 2): as the sequence (VH, as listed by the source, chain 1 of 2) above
# Target sequence in this assay (VL, as listed by the source, chain 2 of 2): as the sequence (VL, as listed by the source, chain 2 of 2) above
# monoclonal antibody 3C4 [5] = target: T4, monoclonal antibody 3C4; assay: SPR, 3C4 immobilised, phagemid injected
# Experimental: as §1, §2
# Target sequence in this assay (VH, as listed by the source, chain 1 of 2): as the sequence (VH, as listed by the source, chain 1 of 2) above
# Target sequence in this assay (VL, as listed by the source, chain 2 of 2): as the sequence (VL, as listed by the source, chain 2 of 2) above
# monoclonal antibody 3C4 [6] = target: T4, monoclonal antibody 3C4; assay: phage ELISA, coated mAb 3C4, 10^10 phagemid per well
# Experimental: as §3
# monoclonal antibody 3C4 [7] = target: T4, monoclonal antibody 3C4; assay: SPR, inhibition of phagemid binding to 3C4 by 1 uM holoTC (competitor)
# Experimental: as §1, §2
# Target sequence in this assay (VH, as listed by the source, chain 1 of 2): as the sequence (VH, as listed by the source, chain 1 of 2) above
# Target sequence in this assay (VL, as listed by the source, chain 2 of 2): as the sequence (VL, as listed by the source, chain 2 of 2) above
# monoclonal antibody TC2 = target: B1; assay: SPR, mAb immobilised, phagemid injected (Table 5; 1 RU)
# Experimental: as §1, §2
# [8] = target: T1, human apotranscobalamin (apoTC); assay: SPR (BIAcore), antibody immobilised
# [9] = target: T2, human holotranscobalamin (holoTC); assay: SPR (BIAcore), antibody immobilised
# [10] = target: T2, human holotranscobalamin (holoTC); assay: SPR (Biacore), mAb on chip, TC injected
# [11] = target: T2, human holotranscobalamin (holoTC); assay: SPR (Biacore); Kd values for holoTC
# [12] = target: T1, human apotranscobalamin (apoTC); assay: SPR (BIAcore), antibody immobilised; head read as 10^-4
# [13] = target: T2, human holotranscobalamin (holoTC); assay: as above
# [14] = target: T2, human holotranscobalamin (holoTC); assay: SPR; holoTC against apoTC
# [15] = target: T2, human holotranscobalamin (holoTC); assay: SPR, scFv injected over immobilised holoTC
# Experimental: Selected scFv antibodies were evaluated by surface plasmon resonance essentially as described in Example 2. Purified antibody preparations were injected over a chip with immobilized holoTC. The holoTC chip was prepared by binding holoTC to a chip prepared as described in 2.1 or by binding biotinylated holoTC on a streptavidin coated SA chip (Biacore, Sweden).
# [16] = target: T2, human holotranscobalamin (holoTC); assay: SPR (BIAcore), scFv immobilised
# [17] = target: T1, human apotranscobalamin (apoTC); assay: SPR (BIAcore), scFv immobilised; head read as 10^-4
# [18] = target: T2, human holotranscobalamin (holoTC); assay: as above
Binder,phagemid bound (RU) (monoclonal antibody 3-9),ELISA (absorbance units) (monoclonal antibody 3C4 [1]),phagemid bound (RU) (monoclonal antibody 3C4 [2]),Block by holoTC (RU) (monoclonal antibody 3C4 [3]),ELISA (absorbance units) (monoclonal antibody 3C4 [4]),Phage bound (RU) (monoclonal antibody 3C4 [5]),ELISA (absorbance units) (monoclonal antibody 3C4 [6]),Inhibition (%) (monoclonal antibody 3C4 [7]),also measured
"CSFFYSLCYCWCS (disulfide (positions not given here); also: four Cys, disulfide pairing not given here, also called CSI-31p) [phagemid CS1-31p (phage-displayed disulfide cyclized 13 mer peptide)]",0 RU,0.165 absorbance units,42 RU,5 RU,0.152 absorbance units,42 RU,0.298 absorbance units,88%,–
CSFRYLWDQDRCS (disulfide 1-12 (inferred); also: displayed on phage (phagemid)) [phagemid CS1-6p (phage-displayed disulfide cyclized 13 mer peptide)],0 RU,0.664 absorbance units,45 RU,3 RU,0.406 absorbance units,24 RU,1.06 absorbance units,88%,binding result (monoclonal antibody TC2): no binding
CSGLYPWDYFMCS (disulfide 1-12 (inferred); also: displayed on phage (phagemid)) [phagemid CS1-29p (phage-displayed disulfide cyclized 13 mer peptide)],–,0.189 absorbance units,–,3 RU,0.156 absorbance units,20 RU,0.335 absorbance units,85%,–
B1,–,–,–,–,–,–,–,–,Ka [8]: 7e+07 M⁻¹; kon [8]: 100000 M⁻¹ s⁻¹; Ka [9]: 2.5e+08 M⁻¹; kon [9]: 100000 M⁻¹ s⁻¹; Kd [10]: 1 to 5 nM; Kd [11]: 1 to 5 nM; koff [12]: 0.0015 s⁻¹; koff [13]: 0.0004 s⁻¹; holo/apo Specificity (-fold) [14]: 1 -fold
"CSLFYLWDQDRCS (disulfide 1-12 (inferred); also: displayed on phage (phagemid), coat fusion not given here) [phagemid CS1-2p (phage-displayed disulfide cyclized 13 mer peptide)]",–,0.224 absorbance units,–,–,0.245 absorbance units,4 RU,0.287 absorbance units,–,–
CSGLYPWDMFRCS (disulfide 1-12 (inferred); also: displayed on phage (phagemid)) [phagemid CS1-9p (phage-displayed disulfide cyclized 13 mer peptide)],–,0.539 absorbance units,–,1 RU,0.259 absorbance units,35 RU,0.769 absorbance units,87%,–
CSFRYQWDMFRCS (disulfide 1-12 (inferred); also: displayed on phage (phagemid)) [phagemid CS1-11p (phage-displayed disulfide cyclized 13 mer peptide)],0 RU,0.559 absorbance units,32 RU,0 RU,0.348 absorbance units,32 RU,0.645 absorbance units,100%,–
"mutated scFv 3C4 clone 3.9G2 (scFv, A190T stands in the next printed row (r19)) scFv: EVQLQESGPGLVKPSLSLSLICTVTGYSIASDYTWNWIRQFPGNKLEWMGYISYSGSTSYNPSLKSRISITRDTSKNQFFLQLNSVTTEDTATYYCARPYYYGIRGFAYWGQGTLVTVSAGGGGSGGGGSGGGGSDIQMTQSPASLSASVGETVTITCRASENIYSYLAWYQQIQGKSPQLLVYNSKTLTEGVPSRFSGSGSGTQFSLKINSLQPEDFGSYYCQHHYVTPYTFGGGTKLEIKR",–,–,–,–,–,–,–,–,Kd [15]: 150 nM; koff [15]: 0.00059 s⁻¹; kon [15]: 3800 M⁻¹ s⁻¹
"single chain antibody fragment TC2_ScFv (scFv, A C-terminal tag may be present; also called scFv TC2) scFv: QVQLKQSGPGLLQPSQSLSITCTVSGFSLTYYGVHWVRQSPVKGLEWLGVIWSGGDTDYDTTFISRLSISKDNSKGQVFFKMTSLQTDDTAIYYCARGRTYGIHFDYWGQGTTLTVSSGGGGSGGGGSGGGGSDIVMSQSPSSLAVSVGEKVTMSCKSSQSLFNSRTRKNYLAWYQQKPGQSPKVLIYWASTRESGVPDRFTGSGSGTDFTLTISSVQAEDLAIYYCKQFYDLWTFGGGTKLEIKR",–,–,–,–,–,–,–,–,Ka [16]: 3e+06 M⁻¹; kon [16]: 4000 M⁻¹ s⁻¹; koff [17]: 0.0015 s⁻¹; koff [18]: 0.0015 s⁻¹
